# Results published in patent US20150037339A1 (Regeneron, published 2015).
# Residue numbers refer to the chain shown, from its start.
# T1: Activin A (human, UniProt P08476 311-426)
# T1 construct: Homodimer of two βA subunits; bought from R&D Systems (#338-AC); also called inhibin-βA dimer; human Activin A
# T1 sequence: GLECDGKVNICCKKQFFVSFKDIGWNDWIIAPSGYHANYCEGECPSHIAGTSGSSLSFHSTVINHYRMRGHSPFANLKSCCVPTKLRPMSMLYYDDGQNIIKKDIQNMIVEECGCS
# T2: Activin B (human, UniProt P09529 293-407)
# T2 construct: Homodimer of two βB subunits; R&D Systems #659-AB
# T2 chain: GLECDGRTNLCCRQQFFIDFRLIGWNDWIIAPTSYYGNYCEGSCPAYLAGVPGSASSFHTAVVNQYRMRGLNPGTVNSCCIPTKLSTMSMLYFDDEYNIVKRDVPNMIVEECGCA
# B1: H4H10442P2 (antibody, human IgG4, V domains shown)
# VH: QVQLQESGPGLVKPSETLSITCTVSGGSFSSHFWTWIRQPPGKGLEWIGYLHYSGGTSYNPSLKSRVIISVDTSKNQFSLKLNSVTAADTAVYYCARARSGITFGGLIVPGSFDIWGQGTMVTVSS
# VL: not shown
# B2: H4H10468P2 (antibody, human IgG4, V domains shown)
# VH: B1 VH with I20L, T35S, L51I, H52Y, S58H, K64E, I68T
# VL: not shown
# B3: H4H10446P2 (antibody, human IgG4, V domains shown)
# VH: QVQLQESGPGLVKPSETLSLTCTVSGGSFSSHFWSWIRQPPGKGLEWIGYILYTGGTSFNPSLKSRVSMSVGTSKNQFSLKLSSVTAADTAVYYCARARSGITFTGIIVPGSFDIWGQGTMVTVSS
# VL: not shown
# notes: also called H4H20446
# B4: H4H10423P (antibody, human IgG4, V domains shown)
# VH: QVQLQQSGPGLLKPSQTLSLTCAISGDSVSSNSAAWSWIRQSPSRGLEWLGRTYYRANWFNDYALSVKSRITINPVTSTNHFSLQLHSVTPEDTAVYYCAREGALGYYFDSWGQGTLVTVSS
# VL: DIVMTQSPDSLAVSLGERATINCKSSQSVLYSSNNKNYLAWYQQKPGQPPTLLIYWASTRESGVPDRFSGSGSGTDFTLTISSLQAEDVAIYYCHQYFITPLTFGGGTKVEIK
# Molecular target: T1, Activin A
# Assay: Octet cross-competition; binder on anti-hFc tip; 50 nM hActivin A mixed with 1 uM Isotype control 12 (-) (col 12); dark grey box
# Protocol: (§1) No. 8,309,082) and Control 3 (MAB3381, available from R&D Systems, Inc., Minneapolis, Minn.) were also included in the assays. All assays were performed at 25° C. with a microtiter plate shaking rate of 1000 rpm in Octet HBST buffer (0.01 M HEPES pH7.4, 0.15M NaCl, 3 mM EDTA, 0.05% v/v Surfactant P20, 0.1 mg/mL BSA) according to manufacturer's instructions (ForteBio Corp., Menlo Park, Calif.). […] Any remaining anti-hFc binding sites on the tips were blocked by incubating the tips in a 50 ug/mL solution of irrelevant antibody for 5 minutes.
row,binding response,Binder
1,0.46,B1
2,0.41,B2
3,0.47,B3
4,0.39,B4

# Molecular target: T1, Activin A
# Assay: SPR, captured mAb, 25C; no dissociation observed, kd fixed
# Protocol: (§2) Antibody-antigen association was monitored for 240 seconds while dissociation in buffer was monitored for 600 seconds. Kinetic association and dissociation rate constants were determined by processing and fitting the data using Scrubber software version 2.0c. Binding equilibrium dissociation constants (KD) and dissociative half-lives (t_{1/2}) were then calculated from the kinetic rate constants as: KD (M)=kd/kₐ and t_{1/2} (min)=[ln 2/(60*kd)]. (NB=no binding observed under the conditions used; NT=not tested).
row,koff [s⁻¹],Binder
1,≤ 5e-05,B1
2,≤ 5e-05,B2
3,≤ 5e-05,B3

# Molecular target: T1, Activin A
# Assay: Octet cross-competition; binder on anti-hFc tip; 50 nM hActivin A pre-bound with 1 uM H4H10423P (col 4); black box
# Protocol: as §1
row,binding response,Binder
1,0.27,B1
2,0.41,B2
3,0.33,B3

# Molecular target: T1, Activin A
# Assay: SPR, captured mAb, 25C
# Method in brief: (§3)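 240 s association, 600 s buffer dissociation; ka, kd fitted; KD (M) = kd/ka; t1/2 (min) = ln2/(60*kd).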
Activin A-20 nM (RU),Kd [pM],kon [M⁻¹ s⁻¹],t1/2 [h],koff [s⁻¹],Binder
31.3,≤ 4.55,1.1e+07,≥ 3.85,,B1
21.7,≤ 6.36,7.86e+06,≥ 3.85,,B2
24.1,≤ 3.88,1.29e+07,≥ 3.85,,B3
19.4,32.6,3.33e+06,1.77,0.000109,B4

# Molecular target: T2, Activin B
# Assay: SPR, captured mAb, 25C
# Method in brief: as §3
50 nM Ag Bound (RU),binding result,Binder
3.4,no binding (tested: 50 nM),B1
6.2,,B2
3.6,,B3

# Molecular target: T1, Activin A
# Assay: Octet cross-competition; binder on anti-hFc tip; 50 nM hActivin A pre-bound with 1 uM H4H10468P2 (col 2); black box
# Protocol: as §1
row,binding response,Binder
1,0.36,B1
2,0.36,B3
3,0.58,B4

# Molecular target: T1, Activin A
# Assay: Octet cross-competition; binder on anti-hFc tip; 50 nM hActivin A pre-bound with 1 uM H4H10430P (col 5); white box
# Protocol: as §1
row,binding response,Binder
1,1.33,B1
2,1.41,B2
3,1.39,B3

# Molecular target: T1, Activin A
# Assay: Octet cross-competition; binder on anti-hFc tip; 50 nM hActivin A pre-bound with 1 uM H4H10440P2 (col 9); white box
# Protocol: as §1
row,binding response,Binder
1,1.5,B1
2,1.7,B2
3,1.67,B3
4,1.31,B4

# Molecular target: T1, Activin A
# Assay: Octet cross-competition; binder on anti-hFc tip; 50 nM hActivin A pre-bound with 1 uM Control 1 (col 10); white box
# Protocol: as §1
row,binding response,Binder
1,0.99,B1
2,1.08,B2
3,0.83,B3
4,0.6,B4

# Molecular target: T1, Activin A
# Assay: Octet cross-competition; binder on anti-hFc tip; 50 nM hActivin A pre-bound with 1 uM H4H10429P (col 6); white box
# Protocol: as §1
row,binding response,Binder
1,1.55,B1
2,1.68,B2
3,1.61,B3
4,1.48,B4

# Molecular target: T1, Activin A
# Assay: Octet cross-competition; binder on anti-hFc tip; 50 nM hActivin A pre-bound with 1 uM H4H10446P2 (col 1); black box
# Protocol: as §1
row,binding response,Binder
1,0.35,B1
2,0.33,B2
3,0.51,B4

# Molecular target: T1, Activin A
# Assay: SPR, captured mAb, 37C; no dissociation observed, kd fixed
# Method in brief: as §3
row,koff [s⁻¹],Binder
1,≤ 5e-05,B1
2,≤ 5e-05,B2
3,≤ 5e-05,B3
4,≤ 5e-05,B4

# Molecular target: T1, Activin A
# Assay: Octet cross-competition; binder on anti-hFc tip; 50 nM hActivin A pre-bound with 1 uM Control 3 (col 11); white box
# Protocol: as §1
row,binding response,Binder
1,0.99,B1
2,0.79,B2
3,1.21,B3
4,0.79,B4

# Molecular target: T2, Activin B
# Assay: SPR, captured mAb, 25C; 25 C
# Protocol: as §2
Kd [pM],koff [s⁻¹],kon [M⁻¹ s⁻¹],t1/2 [s],Binder
61800,0.0302,489000,24,B4

# Molecular target: T1, Activin A
# Assay: Octet cross-competition; binder on anti-hFc tip; 50 nM hActivin A pre-bound with 1 uM H4H10432P2 (col 7); white box
# Protocol: as §1
row,binding response,Binder
1,1.59,B1
2,1.73,B2
3,1.68,B3
4,1.32,B4

# Molecular target: T1, Activin A
# Assay: Octet cross-competition; binder on anti-hFc tip; 50 nM hActivin A mixed with 1 uM Isotype control 13 (-) (col 13); dark grey box
# Protocol: as §1
row,binding response,Binder
1,0.26,B1
2,0.28,B2
3,0.26,B3
4,0.26,B4

# Molecular target: T1, Activin A
# Assay: Octet cross-competition; binder on anti-hFc tip; 50 nM hActivin A pre-bound with 1 uM H4H10442P2 (col 3); black box
# Protocol: as §1
row,binding response,Binder
1,0.4,B2
2,0.39,B3
3,0.59,B4

# Molecular target: T1, Activin A
# Assay: Octet cross-competition; binder on anti-hFc tip; 50 nM hActivin A pre-bound with 1 uM H4H10436P2 (col 8); white box
# Protocol: as §1
row,binding response,Binder
1,1.44,B1
2,1.66,B2
3,1.61,B3
4,1.49,B4

# Molecular target: T1, Activin A
# Assay: Octet cross-competition; binder on anti-hFc tip; 50 nM hActivin A pre-bound with 1 uM H4H10430P (col 5); black box
# Protocol: as §1
row,binding response,Binder
1,0.28,B4

# Molecular target: T1, Activin A
# Assay: SPR, captured mAb, 37C
# Method in brief: as §3
Activin A-20 nM (RU),Kd [pM],kon [M⁻¹ s⁻¹],t1/2 [h],Binder
40.5,≤ 3.48,1.44e+07,≥ 3.85,B1
24.5,≤ 4.1,1.22e+07,≥ 3.85,B2
31.5,≤ 3.25,1.54e+07,≥ 3.85,B3
25.2,≤ 12.6,3.95e+06,≥ 3.85,B4

# Molecular target: T2, Activin B
# Assay: SPR, captured mAb, 37C
# Method in brief: as §3
50 nM Ag Bound (RU),binding result,Binder
4.4,,B1
3.4,no binding (tested: 50 nM),B2
3.8,no binding (tested: 50 nM),B3
